In this test the target is PeB^GF-Lys, double substituted variant ([change], [change]) of PeB-Lys (mouse). As to the kind of experiment: SPR. For orientation: In SPR one partner is held on a chip, and binding of the other changes the refractive index at the surface.

“hemagglutinin (HA) of influenza A/NewYork/55/2004 H3N2, in monovalent split vaccine (natural protein)” came in with a fold amount of hemagglutinin bound compared to PeB of 4 fold.

These data come from publication PMC4944999 (PLoS ONE, 2016).
